Substitutions are numbered along the chain they refer to.
T1: biotinylated recombinant mouse IL-12Rβ2 (produced in-house) (mouse, UniProt P97378 24-637, random biotinylated)
T1 construct: also called mIL-12RB2; mIL12RB2
T1 sequence: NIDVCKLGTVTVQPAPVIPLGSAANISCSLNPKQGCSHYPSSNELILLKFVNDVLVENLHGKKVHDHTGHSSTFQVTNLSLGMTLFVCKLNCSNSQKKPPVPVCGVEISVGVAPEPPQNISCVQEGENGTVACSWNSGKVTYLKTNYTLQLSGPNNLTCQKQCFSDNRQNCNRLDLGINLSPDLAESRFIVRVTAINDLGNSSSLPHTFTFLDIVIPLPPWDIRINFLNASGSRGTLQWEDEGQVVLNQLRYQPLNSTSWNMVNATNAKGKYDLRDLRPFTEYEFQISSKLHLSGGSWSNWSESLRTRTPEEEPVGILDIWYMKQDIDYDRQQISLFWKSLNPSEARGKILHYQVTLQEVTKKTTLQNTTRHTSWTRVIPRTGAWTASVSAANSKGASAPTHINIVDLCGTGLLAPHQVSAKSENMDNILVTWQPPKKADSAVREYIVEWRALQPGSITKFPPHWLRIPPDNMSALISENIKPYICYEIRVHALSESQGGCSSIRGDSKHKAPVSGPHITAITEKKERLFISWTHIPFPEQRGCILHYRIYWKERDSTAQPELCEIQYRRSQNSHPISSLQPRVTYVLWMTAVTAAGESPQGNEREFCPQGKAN

T2: biotinylated recombinant human IL-12Rβ2 (produced in-house) (human, UniProt Q99665 24-622, random biotinylated)
T2 construct: also called hIL-12RB2; hIL12RB2
T2 sequence: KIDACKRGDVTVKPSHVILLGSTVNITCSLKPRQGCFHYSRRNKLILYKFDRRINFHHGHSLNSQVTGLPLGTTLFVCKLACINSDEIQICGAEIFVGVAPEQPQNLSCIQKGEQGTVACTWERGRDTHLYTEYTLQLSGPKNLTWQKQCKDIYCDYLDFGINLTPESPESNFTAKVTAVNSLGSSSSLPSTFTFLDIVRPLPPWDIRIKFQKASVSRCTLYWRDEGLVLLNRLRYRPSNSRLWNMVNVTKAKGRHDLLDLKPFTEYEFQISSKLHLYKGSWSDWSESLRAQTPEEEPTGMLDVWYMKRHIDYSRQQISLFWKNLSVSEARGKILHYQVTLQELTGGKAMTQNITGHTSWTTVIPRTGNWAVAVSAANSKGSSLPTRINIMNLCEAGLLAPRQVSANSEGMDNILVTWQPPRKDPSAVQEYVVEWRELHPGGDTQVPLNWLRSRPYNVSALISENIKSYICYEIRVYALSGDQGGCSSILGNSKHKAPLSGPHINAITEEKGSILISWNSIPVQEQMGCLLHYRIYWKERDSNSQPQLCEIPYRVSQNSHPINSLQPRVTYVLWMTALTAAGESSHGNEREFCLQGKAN

T3: human IL-12Rβ2 expressed on cells (human, UniProt Q99665 24-862)
T3 construct: HEK293T cells transiently transfected with a human IL-12Rβ2 plasmid (Genscript OHu21785); also called hIL-12RB2
T3 sequence: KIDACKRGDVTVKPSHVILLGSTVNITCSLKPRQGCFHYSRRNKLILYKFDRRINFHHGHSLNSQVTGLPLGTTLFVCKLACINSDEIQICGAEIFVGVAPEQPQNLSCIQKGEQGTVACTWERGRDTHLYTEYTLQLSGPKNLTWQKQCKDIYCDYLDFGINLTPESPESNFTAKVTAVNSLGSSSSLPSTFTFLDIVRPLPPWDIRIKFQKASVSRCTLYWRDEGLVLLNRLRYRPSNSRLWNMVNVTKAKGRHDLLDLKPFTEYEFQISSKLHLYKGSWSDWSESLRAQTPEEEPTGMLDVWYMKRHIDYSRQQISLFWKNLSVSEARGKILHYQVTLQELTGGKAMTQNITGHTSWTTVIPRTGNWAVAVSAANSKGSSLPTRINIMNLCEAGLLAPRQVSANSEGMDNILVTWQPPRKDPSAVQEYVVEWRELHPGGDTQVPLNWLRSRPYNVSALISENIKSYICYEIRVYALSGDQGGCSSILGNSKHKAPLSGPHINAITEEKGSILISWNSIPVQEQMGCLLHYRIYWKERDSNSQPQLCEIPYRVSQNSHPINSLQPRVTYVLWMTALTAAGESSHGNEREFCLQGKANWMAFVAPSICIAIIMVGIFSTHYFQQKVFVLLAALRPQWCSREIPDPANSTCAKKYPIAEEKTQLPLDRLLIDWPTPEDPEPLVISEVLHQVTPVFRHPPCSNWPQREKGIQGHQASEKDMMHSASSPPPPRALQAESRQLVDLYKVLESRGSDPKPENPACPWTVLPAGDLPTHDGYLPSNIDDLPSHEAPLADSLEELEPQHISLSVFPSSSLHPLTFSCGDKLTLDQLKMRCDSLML

B1: anti-IL-12Rβ2 VHH clone 2CRH82 (VHH, not shown: small tags and cut ends)
VHH: QVQLQESGGGLVQAGGSLRLSCAASARTESMYAMAWFRQAPGKEREIVAGIIQSGGTTYISDYMKGRFSIDRGNAENTVYLQMDSLKPEDTAVYSCAAKVSSGTPSDIQISQSRWYDHWGQGTQVTVSS
notes: tested as periplasmic extract
B2: anti-IL-12Rβ2 VHH clone 3CAHS102 (VHH, not shown: small tags and cut ends)
VHH: QVQLQESGGGLVQPGGSLRLSCAASGSILRINLMGWYRQVPGKQRELVAEMSTGGSTTYVDSVEGRFTISRDNAKNTVYLQMNSLKPEDTAVYYCNAKAWQLGRLENDDWGQGTQVTVSS
notes: tested as periplasmic extract
B3: anti-IL-12Rβ2 VHH clone 3CRHS106 (VHH, not shown: small tags and cut ends)
VHH: QVQLQESGGGLVQPGGSLRLSCKASGFTFSTYAMSWVRQAPGKGLEWVSAVNSGGLSTDYADSVEGRFTISRDDAKNMLFLQMNSLKPEDTARYYCAKYEDCSDYMCHRDRAGYWGQGTQVTVSS
notes: tested as periplasmic extract
B4: anti-IL-12Rβ2 VHH clone 3CAHS124 (VHH, not shown: small tags and cut ends)
VHH: QVQLQESGGGLVQPGGSLRLSCAASGRTINAYIMGWFRQAPGKEREFVAAVSGSGGSTYYADSVKGRFTISRDNAKNTVNLQMDNLRSEDTDVYYCAATYESVYLQNPGQYDYWGQGTQVTVSS
notes: tested as periplasmic extract
B5: anti-IL-12Rβ2 VHH clone 3CAHS41 (VHH, not shown: small tags and cut ends)
VHH: QVQLQESGGGLVQAGDSLRLSCAASGRTFDTYIVGWFRQAPGKEREFVSALSWSDDTTIRDDSLRGRFTISRDNAKNTVYLLMNSLKPEDTAVYYCAAKAKPPAATWSSYRNREWYDYWGQGTQVTVSS
notes: tested as periplasmic extract
B6: anti-IL-12Rβ2 VHH clone 3CRHS54 (VHH, not shown: small tags and cut ends)
VHH: QVQLQESGGGLVQPGGSLRLSCTASGSIVSIYNMDWYRQAPGNEREWVASITSSGDPYYDGSAKGRFTISRDNAKMTVYLQMNSLEPEDTAVYFCKVPTEKGNYWGQGTQVTVSS
notes: tested as periplasmic extract; also called 3CRHSS4
B7: anti-IL-12Rβ2 VHH clone 3CRHS9 (VHH, not shown: small tags and cut ends)
VHH: B6 VHH with E86K, F94Y
notes: tested as periplasmic extract
B8: anti-IL-12Rβ2 VHH clone 3CRHS163 (VHH, not shown: small tags and cut ends)
VHH: QVQLQESGGGLVQPGGSLRLSCTASGFAFSTYWMYWIRQSPEKGFEWVSVVNTGGDITYYADSVKGRFTISRDNAKNTLYLQMNSLKPEDTALYYCARDRTTMSYTRTYYRGGQGTQVTVSS
notes: tested as periplasmic extract
B9: anti-IL-12Rβ2 VHH clone 3CRHS51 (VHH, not shown: small tags and cut ends)
VHH: QVQLQESGGGLVQPGGSLRLSCAASGFTFSTYAMSWVRQAPGKGLEWVSAVNSGGLSTDYADSVEGRFTISRDDAKNMLFLQMNRLKPEDTARYYCAKYEDCSDYVCDRAGYWGQGTQVTVSS
notes: tested as periplasmic extract; also called 3CRASS1
B10: anti-IL-12Rβ2 VHH clone 3CAHS142 (VHH, not shown: small tags and cut ends)
VHH: QVQLQESGGGLVQAGESLTLSCIASGVIKDYAMGWFRQAPGKEREFVAAISWSGVSIYYADSVKGRFTISRDNAKNTVYLQMNSLEPEDTAVYYCAGTEGAYTVAGGSTFGYDMDYWGKGTQVTVSS
notes: tested as periplasmic extract
B11: anti-IL-12Rβ2 VHH clone 3CRH25 (VHH, not shown: small tags and cut ends)
VHH: QVQLQESGGGLVQAGDSLRLSCTASGHTFSRYTTIGWFRQAPGKDREFVAAIRWSGDITDYADAVKGRFTISRDNVKNTVYLQMNSLNPEDTAVYYCARGYSEYGVLSRNRGLYAYWGQGTQVTVSS
notes: tested as periplasmic extract
B12: anti-IL-12Rβ2 VHH clone 3CAHS171 (VHH, not shown: small tags and cut ends)
VHH: QVQLQESGGGLVQPGGSLRLTCVASGFPFSTHAMSWVRQPPGKGREWISAINSGGDSTDYADSVMGRFTISRDNAKNTVYLQMNSLKSEDTAAYYCAKYEDCSDYDCSSRASWGQGTQVTVSS
notes: tested as periplasmic extract; also called 3CANS171
B13: anti-IL-12Rβ2 VHH clone 3CRH5 (VHH, not shown: small tags and cut ends)
VHH: QVQLQESGGGLVQAGGSLVLSCAASGSAALIFLMSWYRQAPGKQRELVAEVSRGGSTTYADSVEGRFTISRDNAKNIVDLQMNSLKPEDTAVYYCKADQNYGDSLRSSWGQGTQVTVSS
notes: tested as periplasmic extract; also called 3CRHS
B14: anti-IL-12Rβ2 VHH clone 3CRHS128 (VHH, not shown: small tags and cut ends)
VHH: QVQLQESGGGLVQPGGSLRLSCAASGFTFSTSGMHWFRQAPGKGLEWVSSIGATVDNSYYASSVKGRFTISRDNAKNTLYLLMNSLKSEDTAVYYCSKDPTGSSRGQGTQVTVSS
notes: tested as periplasmic extract; also called SCRHS128

target: T1, biotinylated recombinant mouse IL-12Rβ2 …; experiment: ELISA, P.E. VHH on biotinylated mIL-12RB2

Row | binding result | Binder
1 | no binding | B1
2 | no binding | B2
3 | no binding | B3
4 | no binding | B4
5 | no binding | B5
6 | no binding | B6
7 | no binding | B7
8 | no binding | B8
9 | no binding | B9
10 | no binding | B10
11 | no binding | B11
12 | no binding | B12
13 | no binding | B13
14 | no binding | B14

target: T2, biotinylated recombinant human IL-12Rβ2 …; experiment: BLI (Octet), P.E. VHH on immobilised biotinylated hIL-12RB2, 1:1 model

Row | koff | Binder
15 | 0.00274 s⁻¹ | B1
16 | 0.00267 s⁻¹ | B2
17 | 0.00355 s⁻¹ | B3
18 | 0.00324 s⁻¹ | B4
19 | 0.00441 s⁻¹ | B5
20 | 0.00272 s⁻¹ | B6
21 | 0.0034 s⁻¹ | B7
22 | 0.00302 s⁻¹ | B8
23 | 0.0043 s⁻¹ | B9
24 | 0.00324 s⁻¹ | B10
25 | 0.00205 s⁻¹ | B11
26 | 0.00431 s⁻¹ | B12
27 | 0.00337 s⁻¹ | B13
28 | 0.00274 s⁻¹ | B14

target: T3, human IL-12Rβ2 expressed on cells; experiment: flow cytometry, P.E. VHH on HEK293T cells transiently expressing hIL-12RB2

Row | dMFI | Binder
29 | 744 | B1
30 | 994 | B2
31 | 1010 | B3
32 | 1100 | B4
33 | 971 | B5
34 | 870 | B6
35 | 941 | B7
36 | 1050 | B8
37 | 1140 | B9
38 | 812 | B10
39 | 520 | B11
40 | 1180 | B12
41 | 735 | B13
42 | 1380 | B14

target: T2, biotinylated recombinant human IL-12Rβ2 …; experiment: BLI (Octet), P.E. VHH on immobilised biotinylated hIL-12RB2

Row | Response | Binder
43 | 0.426 | B1
44 | 0.323 | B2
45 | 0.297 | B3
46 | 0.293 | B4
47 | 0.609 | B5
48 | 0.203 | B6
49 | 0.222 | B7
50 | 0.339 | B8
51 | 0.327 | B9
52 | 0.352 | B10
53 | 0.523 | B11
54 | 0.195 | B12
55 | 0.491 | B13
56 | 0.294 | B14

target: T1, biotinylated recombinant mouse IL-12Rβ2 …; experiment: ELISA, P.E. VHH on biotinylated mIL-12RB2, signal ratio to control well

Row | ELISA mIL12RB2/control | Binder
57 | 1.77 | B1
58 | 1.02 | B2
59 | 1.03 | B3
60 | 1 | B4
61 | 1.35 | B5
62 | 1.26 | B6
63 | 1.09 | B7
64 | 0.93 | B8
65 | 1.07 | B10
66 | 1.04 | B11
67 | 0.96 | B12
68 | 0.81 | B13
69 | 0.98 | B14

target: T2, biotinylated recombinant human IL-12Rβ2 …; experiment: ELISA, P.E. VHH on biotinylated hIL-12RB2, signal ratio to control well

Row | ELISA hIL12RB2/control | Binder
70 | 16.1 | B1
71 | 3.54 | B2
72 | 10.2 | B3
73 | 5.67 | B4
74 | 8.77 | B5
75 | 7.85 | B6
76 | 5.08 | B7
77 | 3.58 | B8
78 | 4.98 | B10
79 | 5.16 | B11
80 | 3.27 | B12
81 | 8.64 | B13
82 | 3.65 | B14
